# Source: article PMC4223295, “Crystal Structure of the Bacillus subtilis Phosphodiesterase PhoD Reveals an Iron and Calcium-containing Active Site” (The Journal of Biological Chemistry, 2014)
# What was measured:
# PhoD (mPhoD) = target: T1, PhoD (mPhoD) (Bacillus subtilis, UniProt P42251); details: crystallised at pH 5.6 with phosphate; active site, coordinates Fe3+ and two Ca2+ ions; proposed product complex
# T1 sequence (P42251 57-583): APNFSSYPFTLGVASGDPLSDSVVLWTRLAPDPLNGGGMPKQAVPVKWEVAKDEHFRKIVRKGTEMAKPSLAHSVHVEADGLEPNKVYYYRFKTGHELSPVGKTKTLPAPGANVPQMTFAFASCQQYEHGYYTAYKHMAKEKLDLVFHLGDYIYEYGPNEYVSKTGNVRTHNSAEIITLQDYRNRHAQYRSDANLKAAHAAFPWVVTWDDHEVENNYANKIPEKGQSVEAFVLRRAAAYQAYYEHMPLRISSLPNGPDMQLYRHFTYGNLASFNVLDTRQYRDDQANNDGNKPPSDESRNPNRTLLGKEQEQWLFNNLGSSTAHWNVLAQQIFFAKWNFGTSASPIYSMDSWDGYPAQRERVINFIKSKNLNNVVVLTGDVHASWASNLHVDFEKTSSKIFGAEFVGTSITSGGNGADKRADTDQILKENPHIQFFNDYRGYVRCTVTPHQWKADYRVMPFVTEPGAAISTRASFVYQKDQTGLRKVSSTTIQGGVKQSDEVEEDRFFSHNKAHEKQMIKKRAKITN
# purified protein = substrate: O=[N+]([O-])c1ccc(OP(=O)(O)O)cc1; assay: purified protein; assay type: biochemical, Bacillus subtilis; details: pH 8.0, 25 °C, 100 mM Tris-HCl, 2 mM CaCl2, Ca2+-supplemented enzyme
Molecule,"X-ray crystal structure, 2 Å (PhoD (mPhoD))",Km (purified protein) [µM],kcat (purified protein) [s⁻¹]
O=P(O)(O)O [phosphate],the structure contains a phosphate molecule bound at the active site,–,–
"PhoD (mPhoD) (Bacillus subtilis subsp. subtilis str. 168) (protein, mature domain, signal peptide removed; N-terminal Strep-SUMO tag cleaved by Ulp1; E. coli BL21(DE3) cytoplasm) APNFSSYPFTLGVASGDPLSDSVVLWTRLAPDPLNGGGMPKQAVPVKWEVAKDEHFRKIVRKGTEMAKPSLAHSVHVEADGLEPNKVYYYRFKTGHELSPVGKTKTLPAPGANVPQMTFAFASCQQYEHGYYTAYKHMAKEKLDLVFHLGDYIYEYGPNEYVSKTGNVRTHNSAEIITLQDYRNRHAQYRSDANLKAAHAAFPWVVTWDDHEVENNYANKIPEKGQSVEAFVLRRAAAYQAYYEHMPLRISSLPNGPDMQLYRHFTYGNLASFNVLDTRQYRDDQANNDGNKPPSDESRNPNRTLLGKEQEQWLFNNLGSSTAHWNVLAQQIFFAKWNFGTSASPIYSMDSWDGYPAQRERVINFIKSKNLNNVVVLTGDVHASWASNLHVDFEKTSSKIFGAEFVGTSITSGGNGADKRADTDQILKENPHIQFFNDYRGYVRCTVTPHQWKADYRVMPFVTEPGAAISTRASFVYQKDQTGLRKVSSTTIQGGVKQSDEVEEDRFFSHNKAHEKQMIKKRAKITN",–,50,1.2
